The record followed here is patent publication US20230270824A1, “INTERFERON-BASED CANCER TREATMENT METHOD AND PHARMACEUTICAL COMPOSITION” (XIAMEN AMOYTOP BIOTECH CO., LTD., priority 2019, published 2023).

Several values for one entry are separate records, joined by “and”; a condition that tells them apart may be missing. Equal entries are not always repeated.

Data set [1] relates to transplanted liver cancer H22. Briefly: Interferon combined with gemcitabine, transplanted liver cancer H22 in mice (Example 5). Conditions: 108 days observation. Format: in vivo, BALB/c mice. The procedure: In this example, a comparative study on the efficacy of PEG-mIFN-α4 intermittent administration (once every 48 hours for three consecutive times, then drug withdrawal for 144 hours; for 8 rounds), PEG-mIFN-α4 continuous administration (once every 48 hours for 42 consecutive times), PEG-mIFN-α4 in combination with gemcitabine (PEG-mIFN-α4: once every 48 hours for three consecutive times, then drug withdrawal for 240 hours, 6 rounds; gemcitabine: once a week) on H22 transplanted liver cancer in mice was performed.
(§1) On the day when the tumor was inoculated, they were randomly divided into PEG-mIFN-α4 continuous administration group (N=24, female 12, male 12), PEG-mIFN-α4 intermittent administration group (N=24, female 12, male 12), the normal saline control group (N=24, female 12, male 12), the gemcitabine only group (N=24, female 12, male 12), and PEG-mIFN-α4 combined with gemcitabine group (N=24, female 12, male 12).
Gemcitabine was injected intraperitoneally, 60 mg/kg.
(§2) For the PEG-mIFN-α4 intermittent administration group, PEG-mIFN-α4 was administered once every 48 hours for three consecutive times, then drug withdrawal for 144 hours; for 8 rounds. For the PEG-mIFN-α4 continuous administration group, PEG-mIFN-α4 was administered once every 48 hours. For the PEG-mIFN-α4 combined with gemcitabine group, PEG-mIFN-α4 was administered once every 48 hours for three consecutive times, then drug withdrawal for 240 hours; for 6 rounds; and gemcitabine was administered once a week. For the gemcitabine only group, gemcitabine was administered once a week. For the saline control group, equal volume of saline was administered.
Survival analysis was performed for all groups to compare the differences between groups.

Data set [2] concerns transplanted lung cancer LLC. As to the kind of experiment: Interferon combined with gemcitabine, transplanted lung cancer LLC in mice (Example 6). The format is in vivo, C57BL/6N mice. The procedure:
In this example, a comparative study on the efficacy of PEG-mIFN-α4 intermittent administration (once every 48 hours for four consecutive times, then drug withdrawal for 192 hours; for 5 rounds), PEG-mIFN-α4 continuous administration (once every 48 hours for 32 consecutive times), PEG-mIFN-α4 in combination with gemcitabine (PEG-mIFN-α4: once every 48 hours for four consecutive times, then drug withdrawal for 360 hours, 4 rounds; gemcitabine: once a week) on transplanted […] LLC in mice was performed.
On the day when the tumor was inoculated, they were randomly divided into PEG-mIFN-α4 continuous administration group (N=26, female 13, male 13), PEG-mIFN-α4 intermittent administration group (N=26, female 13, male 13), the normal saline control group (N=26, female 13, male 13), the gemcitabine only group (N=26, female 13, male 13), and PEG-mIFN-α4 combined with gemcitabine group (N=26, female 13, male 13).
as §2, with “4” for “three”, “192” for “144”, “360” for “240”, “4” for “6”, “administered. Gemcitabine was injected intraperitoneally, 60 mg/kg.” for “administered.”
(§3) SAS9.4 software was used for comparing the difference in mortality, and the statistical tests were all two-sided tests.

The subject of data set [3] is transplanted breast cancer 4T1. Briefly: Interferon combined with gemcitabine, transplanted breast cancer 4T1 in mice (Example 9). Format: in vivo, BALB/c mice. To be noted: 53 days after tumor inoculation. The method, then:
In this example, a comparative study on the efficacy of PEG-mIFN-α4 intermittent administration (once every 48 hours for 3 consecutive times, then drug withdrawal for 144 hours; for 5 rounds), PEG-mIFN-α4 continuous administration (once every 48 hours for 25 consecutive times), PEG-mIFN-α4 in combination with gemcitabine (PEG-mIFN-α4: once every 48 hours for 3 consecutive times, then drug withdrawal for 240 hours, 4 rounds; gemcitabine: once a week) on transplanted breast cancer 4T1 in mice was performed.
as §1
as §2, with “for 3” for “for three”, “for 5” for “for 8”, “for 4” for “for 6”, “administered. Gemcitabine was injected intraperitoneally, 60 mg/kg.” for “administered.”
as §3

The nature of data set [4]: Pharmacokinetic study of single subcutaneous injection in healthy BALB/c mice (double-antibody sandwich ELISA). The procedure:
6-8 weeks old, SPF grade BALB/c mice (N=60, with fifty-fifty of male and female mice) were injected with a single injection of 1 μg/mouse PEG-mIFN-α4 subcutaneously on the back of the neck. Plasma samples were collected before the injection (0 h) and after the injection at 15 h, 24 h, 36 h, 48 h, 72 h, 96 h, 120 h, 168 h, 216 h, 264 h, 312 h, to determine the blood concentration. Phoenix WinNonlin 6.4 software was used to calculate the pharmacokinetic parameters.
(In general: An ELISA detects its analyte on a solid surface through an enzyme-linked reagent.)

For orientation: Tmax means the time at which the peak concentration occurs.

B1: PEG-mIFN-α4: deglycosylated recombinant mouse interferon α4 modified with 40 kD Y-type polyethylene glycol (YPEG-NHS); SEQ ID NO: 6 (protein)
chain: CDLPHTYNLGNKRALTVLEEMRRLPPLSCLKDRKDFGFPLEKVDNQQIQKAQAILVLRDLTQQILNLFTSKDLSATWNATLLDSFCNDLHQQLNDLKACVMQEPPLTQEDSLLAVRTYFHRITVYLRKKKHSLCAWEVIRAEVWRALSSSTNLLARLSEEKE
modifications: 40 kD Y-type PEG; deglycosylated; amino acid sequence of peginterferon murine 4
As to B1, the “Mean survival period (days post tumor inoculation)” value was 37.0 days in data set [1] (continuous administration: 1 μg/mouse s.c. once every 48 hours, 42 times) and 64.0 days in data set [1] (intermittent administration: 1 μg/mouse s.c. every 48 h x3, withdrawal 144 h, 8 rounds). The Mortality was 100% in data set [2] (continuous administration (1 μg/mouse s.c. once every 48 hours), 45 days after tumor inoculation); 100% in data set [2] (continuous administration (once every 48 hours), Day 64 post tumor inoculation); 34.6% in data set [2] (intermittent administration (every 48 h x4, withdrawal 192 h), 45 days after tumor inoculation); 84.6% in data set [2] (intermittent administration (every 48 h x4, withdrawal 192 h), Day 64 post tumor inoculation); 87.5% and 58.3% in data set [3] (continuous administration (once every 48 hours, 25 times)); 87.5% in data set [3] (intermittent administration (every 48 h x3, withdrawal 144 h, 5 rounds)). The Individual blood concentration in data set [4] (collected at 96 h, individual mice 1-5, single s.c. 1 μg/mouse) turned out to be 87.5 ng/mL. In addition, the “Cl_F—obs” value in data set [4] (mouse, in vivo, sc) came to 0.07 mL/h. In data set [4] (mouse, in vivo, sc), this molecule registered a T1/2 of 28.3 h. Besides, the Tmax in data set [4] (mouse, in vivo, sc) worked out at 24 h. The “Vz_F—obs” value in data set [4] (mouse, in vivo, sc) turned out to be 2.91 mL.
